T1: human CD73 on CD73-expressing human tumor cells (MDA-MB-231, NCI-H292) (human, UniProt P21589 27-549)
T1 construct: whole, on cells; The cell line of each result is named under assay or readout; also called cell surface CD73; surface CD73
T1 sequence (looked up): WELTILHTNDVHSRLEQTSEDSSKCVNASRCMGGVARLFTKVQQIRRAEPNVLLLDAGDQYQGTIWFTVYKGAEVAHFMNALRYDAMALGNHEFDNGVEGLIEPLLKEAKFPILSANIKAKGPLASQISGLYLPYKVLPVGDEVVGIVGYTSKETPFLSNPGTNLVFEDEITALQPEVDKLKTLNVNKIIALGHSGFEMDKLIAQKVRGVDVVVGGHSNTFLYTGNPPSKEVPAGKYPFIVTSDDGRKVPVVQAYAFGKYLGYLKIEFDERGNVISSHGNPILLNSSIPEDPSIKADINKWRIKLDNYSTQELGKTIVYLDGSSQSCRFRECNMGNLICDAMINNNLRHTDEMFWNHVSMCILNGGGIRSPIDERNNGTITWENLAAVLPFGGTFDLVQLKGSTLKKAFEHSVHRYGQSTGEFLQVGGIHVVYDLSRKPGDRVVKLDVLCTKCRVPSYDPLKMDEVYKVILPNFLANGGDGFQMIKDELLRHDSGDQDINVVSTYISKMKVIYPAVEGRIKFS

T2: mouse CD73 on mouse mammary carcinoma 4T1 cells (mouse, UniProt Q61503 29-551)
T2 construct: whole, on cells
T2 sequence (looked up): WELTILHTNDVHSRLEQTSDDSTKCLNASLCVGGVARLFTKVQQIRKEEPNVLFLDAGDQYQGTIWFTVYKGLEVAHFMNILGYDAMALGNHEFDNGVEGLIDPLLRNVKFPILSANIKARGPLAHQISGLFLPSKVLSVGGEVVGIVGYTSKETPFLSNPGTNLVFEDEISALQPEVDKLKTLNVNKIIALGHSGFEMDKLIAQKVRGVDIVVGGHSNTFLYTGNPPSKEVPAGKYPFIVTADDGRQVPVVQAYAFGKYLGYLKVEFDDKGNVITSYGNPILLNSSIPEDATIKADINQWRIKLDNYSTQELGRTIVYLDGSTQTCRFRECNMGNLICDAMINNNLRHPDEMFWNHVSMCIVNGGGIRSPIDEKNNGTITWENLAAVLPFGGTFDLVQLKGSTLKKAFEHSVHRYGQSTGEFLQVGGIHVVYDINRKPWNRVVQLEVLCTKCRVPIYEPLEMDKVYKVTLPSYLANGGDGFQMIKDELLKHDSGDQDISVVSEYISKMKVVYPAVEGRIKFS


Key:
[1] = molecular target: T1, human CD73 on CD73-expressing human …; assay: flow cytometry on MDA-MB-231 cells, biotin-labeled antibody, streptavidin-FITC (FIG. 5C)
Protocol: The binding of anti-CD73 antibodies to cell surface CD73 were tested by incubating the MDA-MB-231 cells with the serially diluted biotin-labeled anti-CD73 antibodies in FACS buffer (PBS with 2% FBS) at 4° C. for 30 minutes. The cells were washed with FACS buffer and the binding was detected with streptavidin-FITC at 4° C. for 30 minutes. Flow cytometric analyses were performed using the Cytomics FC500 (Beckman Coulter Inc.).
The variable sequences of N1, N2 and N4 were cloned into human wild-type or C219S mutant IgG2 Fc backbone. Different IgG isotypes of N1 (FIG. 5A), N2 (FIG. 5B), N4 (FIG. 5C) were tested the binding to CD73-expressing human MDA-MB-231 cells by flow cytometry. Anti-CD73 ref-1 antibody and HLX01 (anti-CD20) were used as the positive and negative control respectively.

[2] = molecular target: T1, human CD73 on CD73-expressing human …; assay: flow cytometry on MDA-MB-231 cells (FIG. 16B)
Protocol: Whole cell binding ability of anti-CD73 antibodies were tested by incubating the MDA-MB-231 or NCI-H292 cells with the serial-diluted antibodies in FACS buffer (PBS with 2% FBS) at 4° C. for 30 minutes. Cells were washed with FACS buffer and the binding was detected with FITC-labeled goat anti-human IgG (H+L) antibodies (or PE-labeled goat anti-human IgG Fcγ) at 4° C. for another 30 minutes. The binding of antibodies to cell surface was measured by the mean fluorescent intensity (MFI) of staining. Flow cytometric analyses were performed using the Cytomics FC500 or CytoFLEX flow cytometry (Beckman Coulter Inc.). FIGS. 2B and 2C show selected anti-CD73 antibodies binding to CD73-expressing human tumor cells MDA-MB-231 (human breast adenocarcinoma) cells (FIG. 2B), and NCI-H292 (human mucoepidermoid pulmonary carcinoma) cells (FIG. 2C).
FIGS. 16A-16C show CD73 binding ability of N1 and N4 top variants. Anti-CD73 antibodies were tested the binding to recombinant human CD73 proteins by ELISA (FIG. 16A) and CD73-expressing human tumor cells, MDA-MB-231 (FIG. 16B) and NCI-H292 (FIG. 16C), by flow cytometry. Anti-CD73 ref-1 and anti-CD73 ref-2 antibodies were used as the positive controls, while HLX01 (anti-CD20) was used as the negative control. […] The binding of N1#9-PH to CD73-expressing NCI-H292 cells is slightly better than that of N4#6-3-P and N4#6-4-P.

[3] = molecular target: T2, mouse CD73 on mouse mammary carcinoma …; assay: flow cytometry on 4T1 cells, FITC anti-human IgG (FIG. 24A)
Protocol: Binding of anti-CD73 antibodies was assessed by incubating the 4T1 or LLC-MK2 cells (1E5 cells/test) with the serially diluted antibodies in FACS buffer (PBS with 2% FBS) at 4° C. for 30 minutes. The cells were washed with FACS buffer and the binding was detected with FITC-labeled goat anti-human IgG (H+L) antibodies at 4° C. for another 30 minutes. The binding of antibodies to cell surface was measured by the mean fluorescent intensity (MFI) of staining. Flow cytometric analyses were performed using the Cytomics FC500 or CytoFLEX flow cytometry (Beckman Coulter Inc.).
FIGS. 24A and 24B illustrate cross-binding of N1 and N4 top variants to mouse and monkey CD73-expressing cells. Anti-CD73 antibodies were tested for the binding to CD73-expressing mouse mammary carcinoma 4T1 cells (FIG. 24A) and monkey kidney epithelial LLC-MK2 cells (FIG. 24B) by flow cytometry. HLX01 was used as the negative control. […] N1 and N4 top variants cannot cross-bind to mouse CD73.

Binder | binding result [1] | binding result [2] | binding result [3]
N4 with wtIgG2 isotype (antibody, also called N4-wtIgG2; N4 clone, wtIgG2 isotype) heavy: QVQLVQSGAEVKKSGSSVKVSCKASGGTFSSYAISWVRQAPGQGLEWMGGIIPIFGTANYAQKFQGRVTITADESTSIAYMELSSLRSEDTAVYYCASDGAVAAYDAFDIWGQGTMVTVSSASTKGPSVFPLAPCSRSTSESTAALGCLVKDYFPEPVTVSWNSGALTSGVHTFPAVLQSSGLYSLSSVVTVPSSNFGTQTYTCNVDHKPSNTKVDKTVERKCCVECPPCPAPPVAGPSVFLFPPKPKDTLMISRTPEVTCVVVDVSHEDPEVQFNWYVDGVEVHNAKTKPREEQFNSTFRVVSVLTVVHQDWLNGKEYKCKVSNKGLPAPIEKTISKTKGQPREPQVYTLPPSREEMTKNQVSLTCLVKGFYPSDIAVEWESNGQPENNYKTTPPMLDSDGSFFLYSKLTVDKSRWQQGNVFSCSVMHEALHNHYTQKSLSLSPGK light: QAVLTQPSSVSGAPGQRVTISCTGTSSNIGAGYDIHWYQQLPGTAPKLLMYRFTRRPSGVPDRFSGSKSGTSASLTITGLQVEDEADYYCQSYDSGLRGWVFGGGTKLAVLGQPKAAPSVTLFPPSSEELQANKATLVCLISDFYPGAVTVAWKADSSPVKAGVETTTPSKQSNSKYAASSYLSLTPEQWKSHRSYSCQVTHEGSTVEKTVALTECS | binds |  | 
N4 with mtIgG2 isotype (antibody, also called N4-mtIgG2; N4 clone, mtIgG2 isotype) heavy: QVQLVQSGAEVKKSGSSVKVSCKASGGTFSSYAISWVRQAPGQGLEWMGGIIPIFGTANYAQKFQGRVTITADESTSIAYMELSSLRSEDTAVYYCASDGAVAAYDAFDIWGQGTMVTVSSASTKGPSVFPLAPCSRSTSESTAALGCLVKDYFPEPVTVSWNSGALTSGVHTFPAVLQSSGLYSLSSVVTVPSSNFGTQTYTCNVDHKPSNTKVDKTVERKSCVECPPCPAPPVAGPSVFLFPPKPKDTLMISRTPEVTCVVVDVSHEDPEVQFNWYVDGVEVHNAKTKPREEQFNSTFRVVSVLTVVHQDWLNGKEYKCKVSNKGLPAPIEKTISKTKGQPREPQVYTLPPSREEMTKNQVSLTCLVKGFYPSDIAVEWESNGQPENNYKTTPPMLDSDGSFFLYSKLTVDKSRWQQGNVFSCSVMHEALHNHYTQKSLSLSPGK light: QAVLTQPSSVSGAPGQRVTISCTGTSSNIGAGYDIHWYQQLPGTAPKLLMYRFTRRPSGVPDRFSGSKSGTSASLTITGLQVEDEADYYCQSYDSGLRGWVFGGGTKLAVLGQPKAAPSVTLFPPSSEELQANKATLVCLISDFYPGAVTVAWKADSSPVKAGVETTTPSKQSNSKYAASSYLSLTPEQWKSHRSYSCQVTHEGSTVEKTVALTECS | binds |  | 
N4#6-3-P (antibody, human IgG2, lambda, V domains shown, Full-length human IgG2 antibody; also called antibody variant N4#6-3-P; N4 top variant) VH: QVQLVQSGAEVKKSGSSVKVSCKASGGTFSSYAISWVRQAPGQGLEWMGGIIPIFGTANYAQKFQGRVTITADESTSIAYMELSSLRSEDTAVYYCASDGAVAAYDAFLIWGQGTMVTVSS VL: QAVLTQPSSVSGAPGQRVTISCTGTSSNIGLGYDIHWYQQLPGTAPKLLMYRFDRRPSGVPDRFSGSKSGTSASLTITGLQVEDEADYYCQSYDSGQRGWVFGGGTKLTVLG |  | binds | no binding
N4#6-4-P (antibody, human IgG2, lambda, V domains shown, Full-length human IgG2 antibody; also called antibody variant N4#6-4-P; N4 top variant) VH: QVQLVQSGAEVKKSGSSVKVSCKASGGTFSSYAISWVRQAPGQGLEWMGMIIPIFGTANYAQKFQGRVTITADESTSIAYMELSSLRSEDTAVYYCASDGAVAAYDAFLIWGQGTMVTVSS VL: QAVLTQPSSVSGAPGQRVTISCTGTSSNIGAGFDIHWYQQLPGTAPKLLMYRFSRRPSGVPDRFSGSKSGTSASLTITGLQVEDEADYYCQSYDSGQRGWVFGGGTKLTVLG |  | binds | no binding
N1#9-PH (antibody, human IgG2, lambda, V domains shown, Full-length human IgG2 antibody; also called antibody variant N1#9-PH; N1 top variant) VH: EVQLVESGGGLVQPGRSLRLSCAASGFTFDDYAMHWVRLAPGKGLEWVSGISWNSGSIGYADSVRGRFTISRDNAKNSLYLQMNSLRAEDTALYYCAKDMGWSLLKTNYYGMDVWGQGTTVTVSS VL: not shown |  | binds | no binding

— patent US20220162334A1 (SHANGHAI HENLIUS BIOTECH, published 2022)
